The labels stand for the following.
B1: iPAK4 (fusion of the catalytic domain of the Pak4 kinase and the 38 amino acid iBox domain of its inhibitor Inka1) (other)
chain: MDYKDDDDKSGSEAEDWTAALLNRGRSRQPLVLGDNCFADLVHNWMELPEEFPAAPAVPGPPGPRSPQREPQRVSHEQFRAALQLVVDPGDPRSYLDNFIKIGEGSTGIVCIATVRSSGKLVAVKKMDLRKQQRRELLFNEVVIMRDYQHENVVEMYNSYLVGDELWVVMEFLEGGALTDIVTHTRMNEEQIAAVCLAVLQALSVLHAQGVIHRDIKSDSILLTHDGRVKLSDFGFCAQVSKEVPRRKSLVGTPYWMAPELISRLPYGPEVDIWSLGIMVIEMVDGEPPYFNEPPLKAMKMIRDNLPPRLKNLHKVSPSLKGFLDRLLVRDPAQRATAAELLKHPFLAKAGPPASIVPLMRQNRTR
notes: also called ibox-PAK4cat; CMV::iPAK4

Data set [1] deals with the molecule itself. Description: time-lapse fluorescence microscopy of intracellular self-assembly in cultured rat hippocampal neurons.
Data set [2] has as its target B1. The experiment in a line: co-expression in HEK cells; fluorescence imaging of HT-iPAK4 incorporated into iPAK4 assemblies. How it is done:
To assess the suitability of iPAK4 assemblies as a recording medium, a detailed characterization of their nucleation and growth was performed. CMV::iPAK4 (90%), CMV::eGFP-iPAK4 (5%), and CMV::HT-iPAK4 (5%) were co-expressed in HEK cells using lentiviral transduction, and JF₆₆₉ was added to the medium to label the HT. Time-lapse video microscopy was recorded over a 13 hour interval starting 1 hour after transfection, and over 43 hours starting 20 hours after transfection. The fluorescence of the cytoplasm and the growth of individual assemblies was then tracked. Initially, green (eGFP) and red (HT-JF₆₆₉) fluorescence accumulated in the cytoplasm. Upon nucleation, assemblies grew quickly (˜0.5 μm/min) at first, while the cytoplasmic fluorescence dropped. This phase typically lasted approximately 1 h. The assemblies then transitioned to slower linear growth (FIG. 1E). […] A simple mass-action kinetic model predicted the two-phase growth profiles and quantitatively reproduced the observed growth profiles (Calculation 1, FIGS. 7A-7E).

In the case of B1, in data set [1], the binding result was “binds”.

B2: HaloTag-iPAK4 (other)
chain: MIGTGFPFDPHYVEVLGERMHYVDVGPRDGTPVLFLHGNPTSSYVWRNIIPHVAPTHRCIAPDLIGMGKSDKPDLGYFFDDHVRFMDAFIEALGLEEVVLVIHDWGSALGFHWAKRNPERVKGIAFMEFIRPIPTWDEWPEFARETFQAFRTTDVGRKLIIDQNVFIEGTLPMGVVRPLTEVEMDHYREPFLNPVDREPLWRFPNELPIAGEPANIVALVEEYMDWLHQSPVPKLLFWGTPGVLIPPAEAARLAKSLPNCKAVDIGPGLNLLQEDNPDLIGSEIARWLSTLEISGEPTTSGSEAEDWTAALLNRGRSRQPLVLGDNCFADLVHNWMELPEEFPAAPAVPGPPGPRSPQREPQRVSHEQFRAALQLVVDPGDPRSYLDNFIKIGEGSTGIVCIATVRSSGKLVAVKKMDLRKQQRRELLFNEVVIMRDYQHENVVEMYNSYLVGDELWVVMEFLEGGALTDIVTHTRMNEEQIAAVCLAVLQALSVLHAQGVIHRDIKSDSILLTHDGRVKLSDFGFCAQVSKEVPRRKSLVGTPYWMAPELISRLPYGPEVDIWSLGIMVIEMVDGEPPYFNEPPLKAMKMIRDNLPPRLKNLHKVSPSLKGFLDRLLVRDPAQRATAAELLKHPFLAKAGPPASIVPLMRQNRTR
notes: also called HT-iPAK4; CMV::HT-iPAK4
For B2, in data set [2], the binding result was “binds”.

Source of the values: patent US20230151437A1 (Harvard, published 2023).
